Source: paper PMC9580340

The substances below were run against soluble dimeric human ACE2, Fc-tagged, biotinylated (ACRO Biosystems AC2-H82F9) (human) (UniProt Q9BYF1) (assay: SPR).

Question: “SARS-CoV-2 D614G S2P spike trimer (binding studies) (domain or fragment)” was tested. Which Kd did it give?
Answer: 0.73 nM

Question: “SARS-CoV-2 B.1.1.529 S2P spike trimer (binding studies) (domain or fragment)” was tested. Which Kd did it give?
Answer: 0.59 to 3.8 nM

Question: “SARS-CoV-2 WA-1 S2P spike trimer (binding studies) (domain or fragment)” was tested. Which Kd did it give?
Answer: 1.1 nM
